Experimental data as given in the RNAGym collection of RNA variant scans (doi:10.1073/pnas.2313332121).

B1: TPR t1 (parent)
chain: GACCAAUCUGCCCUCAGAGCUCGAGAACAUCUUCGGAUGCAGAGGAGGCAGGCUUCGGUGGCGCGAUAGCGCCAACGUCCUCAACCUCCAAUGCAUCCCACCACAUGAUGAUGCCUGAAGAGCCUUGGUUUUUUG

Variants of: B1
Assay: polymerase ribozyme fitness, log enrichment relative to wild type (log ratio); higher = more active; in vitro selection for triplet polymerase activity
In short: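 Input and output libraries were sequenced on Illumina after a single in vitro selection round, run in triplicate on PCR-built, transcribed mutant libraries of each subunit of a heterodimeric triplet polymerase ribozyme. Selection annealed libraries to a biotinylated primer, the partner subunit and triplets, incubated them frozen at −7 °C, then gel-excised extended constructs for streptavidin-bead capture and RT-PCR. Genotypes with ≥10 input reads and ≥1 read per output were kept. Fitness is the logarithm, taken in base 2, of genotype enrichment divided by wild-type enrichment, using inverse-variance-weighted replicate averages.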

| Variant | polymerase ribozyme fitness (log ratio) |
| --- | --- |
| G44U C62G G117A | -4.71 |
| G45A G69U U112A | 1.62 |
| G45A G60A | -1.47 |
| G45A C85U U92C G128A | -5.92 |
| G44A C72A G110A G122A C124A | -3.56 |
| G44C G45A G61U U78G | -4.37 |
| G45A U131A | -0.734 |
| G45A U131G | -0.996 |
| G44C U87A | -1.07 |
| G44U G69U G117C A121C | -4.54 |
| G44U U55A A83U | -1.34 |
| G45A C70A C85A U133C | -4.78 |
| G44U C72G C85U U96A A121G C124G | -3.64 |
| G44U G47U C72A U81G G117C | -6.49 |
| G44C G47U G48A | -1.43 |
| G44U A90U G135U | -2.19 |
| G44A G60U A108G | -2.88 |
| G44A G60C C114A | -2.55 |
| G44U G48A C114A | -2.35 |
| G44U C53A C56A U67C A111C | -6.43 |
| G44C C62A U132C | -2.12 |
| G45C C56U U81G G113C | -4.36 |
| G44U C89U A111U | -4.49 |
| G44C G69U A75G C79U U87A C97U G135U | -5.55 |

| Variant | polymerase ribozyme fitness (log ratio) |
| --- | --- |
| G44U G45C | -2.69 |
| G45A C49G U106C U112A | -0.738 |
| G44A G60C A111U | -5.02 |
| G44U G47A C56A C124U G127C U131A G135C | -3.28 |
| G45A A68G U112A | -4.04 |
| G45A C64A | -6.18 |
| G44U C72A G127C U131C | -3.12 |
| G44U A46U C89A | -0.411 |
| G44U C72U C76A C88U U109A | -5.19 |
| G44C U112G | -1.07 |
| G44C G77A | -0.814 |
| G45A G48C C53U C62U C102U C124G U131C | -1.71 |
| G44A G110C | -4.8 |
| G44C G69A | -4.37 |
| G44C C72U A100C | -2.51 |
| G45A A74G A95U | -1.3 |
| G44C U92G | -2.61 |
| G45C C53U G63C U116G | -3.05 |
| G45A C56U G69U G93U | -4.17 |
| G45A G128A | -2.84 |
| G44U G63U C115G | -3.72 |
| G44A G58U U81A | -1.79 |
| G45A G71U G120A U133A | -0.0049 |
| G45A A68U C104U U109C | -6.38 |

| Variant | polymerase ribozyme fitness (log ratio) |
| --- | --- |
| G44C C73U C86U U96G U129C | -2.46 |
| G44C G47A G61U U133A | -1.13 |
| G44U G61A C98A G117U | -7.12 |
| G44U C98A G120U | -6.27 |
| G45C C72A G135C | -0.387 |
| G44C U81C U106A | -0.434 |
| G45A G48U G93A | -3.09 |
| G44C C72G C88U C101U | -2.47 |
| G44C A121C | 0.904 |
| G45A U59C C62G | -5.53 |
| G44C A91C G120A | -0.836 |
| G44C C49U | -2.11 |
| G45A C53A U78C U109G G110U A121U | -3.1 |
| G45A C62U U112G C115G | -2.08 |
| G45A C73U G113A C115U | -4.38 |
| G44A G122A G127C | -2.85 |
| G44U G47C C53U C72G | -4.81 |
| G45C A74G A75U G77C C88U G135C | -1.28 |
| G44C A74C A111C | -0.547 |
| G45A G51C | -5.06 |
| G44A G51C C62G C85G G110C | -7.25 |
| G44U C70A U116C | -4.01 |
| G45A G113U | -2.04 |
| G45A G113A | -1.71 |

| Variant | polymerase ribozyme fitness (log ratio) |
| --- | --- |
| G44A C89U C114G G127U U132A | -3.64 |
| G44A G93A | -1.2 |
| G44A G93C | -2.23 |
| G45A A121G | 1.78 |
| G44A G60A A68G C85U U106A U129C | -5.96 |
| G44U G48A C76U C85A C88A | -2.99 |
| G44U G69C A121G | 0.0622 |
| G44U C72G C85A | -2.52 |
| G44U U129A U131A | -3.84 |
| G45C A68G U112A A118U | -4.16 |
| G44A G69U C104A | -1.28 |
| G44C C56U | -0.735 |
| G44A U109G | -5.09 |
| G45A C73G C85A | -2.3 |
| G45A G48U U54C C56G G69U U78G G93U C123G U130A | -2.55 |
| G45A U59G C62G | -3.84 |
| G45A G48U C53G C72A | -0.719 |
| G44U C56A G127C | -2.27 |
| G44U C62G C79U A90G | -1.45 |
| G45A C64U C86U C115A C123G | -1.22 |
| G44A C82U C101G | -2.82 |
| G44U G61C | -2.36 |
| G44U G61U | -0.394 |
| G44U G61A | -1.47 |

| Variant | polymerase ribozyme fitness (log ratio) |
| --- | --- |
| G45A C124U | 0.272 |
| G45A G113A C115U | -3.5 |
| G45A G52C G57U | -2.04 |
| G44U G48U C114A | -2.93 |
| G44A C80A C124A | -3.54 |
| G44U G45A G122A | -3.13 |
| G44A C124U | 0.684 |
| G44A G60A A121C G122U | -1.92 |
| G44C U106G G110A A119G | -4.41 |
| G44U C62A A84U A118G | -4.34 |
| G45A C79U | -1.01 |
| G45A C79G | -1.88 |
| G45A C98U U106A | -1.28 |
| G44U G47U C49U C72A A74G U96G U132A | -5.92 |
| G44A G48C | -1.44 |
| G44U G110A | -2.64 |
| G44U U55G G61C A119U | -1.87 |
| G44U A84G G120C U130G | -2.91 |
| G44U C49A | -2.67 |
| G44U C124G | -0.383 |
| G45A G61C | -1.97 |
| G45C C70U | -1.4 |
| G44U C49A A50C G71A | -5.27 |
| G44C U81A C89U G110U | -4.45 |

| Variant | polymerase ribozyme fitness (log ratio) |
| --- | --- |
| G44C C53A C72U C88U A100U | -0.423 |
| G44A U55A C85G G113A | -3.2 |
| G44U U131A | -1.33 |
| G44U G52U U55A U132A | -2.55 |
| G44U G60C | -0.794 |
| G44U A46C A95G | -3.59 |
| G44C G71U | -2.2 |
| G44A C73G C85A U130A | -3.2 |
| G44U C53G G71U C73A C82U U129G | -3.9 |
| G44U C114U | -2.25 |
| G45A C73A G113U | -4.75 |
| G44U G47U | -2.16 |
| G44A C86G U96A | -3.83 |
| G44U C49A C56U G117A | -2.64 |
| G45A U96G | -1.51 |
| G45C C73A U81A C88G | -0.576 |
| G44A U81G U87G A90G | -4.02 |
| G44U G45U G60C C72U C101U A121G U131C | -0.75 |
| G44C C64U A111G | -0.526 |
| G44A G63A G122A | -2.73 |
| G44A C72G C123A | -1.13 |
| G44U A66U | -2.13 |
| G45A G48U C49A C53U C115G | -3.77 |
| G44C C94G A121G | 0.2 |

| Variant | polymerase ribozyme fitness (log ratio) |
| --- | --- |
| G44C C85U G117A C124A U125C | -1.55 |
| G44A U129A | -1.83 |
| G44U C72A | -1.04 |
| G44U A46C G52U G61U C124A | -3.53 |
| G44U C53A C56A A111C | -0.781 |
| G44U U92C | -1.82 |
| G44A G51A C76A U92A G117C | -6.37 |
| G44U G60A U129C | -1.49 |
| G44A U112A | 0.126 |
| G45A U59C C86A | -3.96 |
| G44C G45U | -2.11 |
| G44A G113C | -3.16 |
| G44A U55G G63C | -0.567 |
| G44A G63A A111C G122A | -5 |
| G44C A46U G58A G117A U130G | -3.81 |
| G44A G61U C99U | -4.04 |
| G44U A83C | -1.34 |
| G44C C115G | -2.64 |
| G44C U92G U106A U116A | -6.02 |
| G44U C53U | -1.59 |
| G44A C72A C98U G110A | -4.64 |
| G45A C94U | -0.815 |
| G44C G69A A91G A103C C115U | -5.28 |
